In patent publication US5432156A, “Therapeutic agent for digestive tract diseases” (Nisshin Flour Milling Co., Ltd., priority 1993, dated 1995):

How the values were obtained:
male BALB/c mice = test: Intraperitoneal administration to mice, observation of appearance; type: in vivo; settings: 10 mg/kg intraperitoneally, 6 weeks age
intestinal mucosa = test: Example 2: weight of intestinal mucosa in rats, glicentin compared with related peptides; type: in vivo; settings: 1 nmol per rat s.c.
[1] = test system: motility of the digestive tracts; test: Example 3: motility of the digestive tracts after meal in dogs (strain gauge transducers); type: in vivo, hybrid dogs
Experimental: An experiment was performed as described below in order to examine the action of glicentin on a motility of the digestive tracts after meal.
Six hybrid dogs weighing 16-18 kg were sutured with strain gauge transducers (manufactured by Star Medical, F121S) at a site of the gastric antrum 4 cm from the pyloric ring, a site of the duodenum for the main incurrent pancreatic duct and a site of the jejunum 10 cm from the Treitz's ligamentum, respectively, to measure the contractile force intensity of the circular muscle. Recovery period for the suture was 2 weeks.
Three of the 6 dogs were intravenously given over 1 hour 15 ml of a physiological saline solution in which 400 pmol of glicentin had been dissolved per kg of bodyweight. The remaining three received an aqueous physiological solution containing no glicentin in the same way as above as a control for comparison. The dogs were fed on 15 g of a solid diet (SD®, manufactured by Oriental Yeast K.K.) and 15 g of Vitaone® (manufactured by Nihon Pet Food K.K. and Kyodo Shiryo K.K.) per kg of bodyweight simultaneously with the intravenous administration.
Then, the motor activity of the digestive tracts and length of the post-feed period were measured. Intensity of the contraction in the post-feed period was integrated for the two-hour measurements and evaluated in comparison with the mean level of the signal peak in phase 3 motor activity of the intestinal tracts in hunger and taken as a motor index.

intestinal mucosae = test: Example 1: nutritional (trophic) effect on the intestinal mucosae of rats fed an elemental nutrition; type: in vivo, male SD rats
Experimental: An experiment was performed in male SD rats weighing 140-160 g which had been fed on standard food under light-dark condition of a cycle of 12 hours. The food which was replaced by an elemental nutrition (Elental®, Morishita-Roussel Japan) was taken ad lib., and remained unchanged until the experiment was finished. After feeding on the component nutrition for 3 days, administration of glicentin prepared as described below was started.
Gelatin was dissolved in warm water to a weight ratio of 16%, and the solution autoclaved and cooled to room temperature. To 40 ml of the gelatin solution was added a solution of 1 mg of glicentin in 10 ml of distilled water with stirring at room temperature. The mixture was divided into test tubes, freeze dried and stored for use.
The gelatin solution was subcutaneously given at a dose of 10 μg per glicentin every 12 hours for 7 days to examine a nutritional effect of glicentin on the intestinal mucosae. A similar gelatin solution containing no glicentin was given for the same period of time as a control for comparison. Twelve hours after completion of the final administration, the rats were sacrificed and subjected to removal of the small intestine in the region from the Treitz's ligamentum to the cecum. The removed small intestine was cut at the central site to separate it into the jejunum and the ileum. The lumen of each of the intestinal tracts was gently washed with an aqueous physiological saline solution. The intestinal tracts were longitudinally incised, respectively, and tissues were removed of a portion of the jejunum in proximity to the duodenum, a portion of the ileum in proximity to the cecum and a portion around the boundary between the jejunum and the ileum and fixed in a 3.7% formalin solution as the proximal, distal and middle sites of the small intestine, respectively. Mucosae were collected by ablation with a spatula from the remainder of the intestinal tracts and weighed, respectively.
The tissues fixed in the formalin solution were embedded in paraffin to form a preparation which was stained with hematoxylin-eosin and measured for height of the villi using an optical microscope.

[2] = 400 pmol/kg i.v. over 1 hour, post-feed contraction integrated over two hours, relative to phase 3 peak in hunger
[3] = 400 pmol/kg i.v., versus control
[4] = 10 μg s.c. every 12 hours for 7 days
[5] = 10 μg s.c. every 12 hours for 7 days, hematoxylin-eosin, optical microscope

B1: glicentin (protein)
chain: RSLQDTEEKSRSFSASQADPLSDPDQMNEDKRHSQGTFTSDYSKYLDSRRAQDFVQWLMNTKRNRNNIA
notes: peptide of 69 amino acid residues, one of the enteroglucagons; human glicentin prepared by genetic engineering procedure
- change in appearance (male BALB/c mice): no change in appearance is observed
- effect on the weight of intestinal mucosa (in words) (intestinal mucosa; versus control group): significantly increases
- Intestinal mucosal weight (intestinal mucosa; third quarter of the small intestine from the duodenum): 0.614 ± 0.025 g
- Length of post-feed period ([1]; 400 pmol/kg i.v. over 1 hour, given with feeding): 13.6 ± 1.0 h
- Motor index, duodenum [1, 2]: 0.675 ± 0.4
- Motor index, jejunum [1, 2]: 1.087 ± 0.2
- Motor index, stomach vestibulum [1, 2]: 0.878 ± 0.1
- influence upon the length of the post-feed period (in words) [1, 3]: no influence
- post-feed motility in the vestibulum of stomach (in words) [1, 3]: inhibited
- Ileal mucosal weight (intestinal mucosae; [4]): 1.04 g
- Ileal mucosal weight per 100 g bodyweight (intestinal mucosae; [4]): 0.57 g/100 g bodyweight
- Jejunal mucosal weight (intestinal mucosae; [4]): 1.3 g
- Jejunal mucosal weight per 100 g bodyweight (intestinal mucosae; [4]): 0.75 g/100 g bodyweight
- Length of small intestine (intestinal mucosae; [4]): 107.0 cm
- Length of small intestine per 100 g bodyweight (intestinal mucosae; [4]): 66.4 cm/100 g bodyweight
- Whole small intestinal mucosal weight (intestinal mucosae; [4]): 2.38 g
- Whole small intestinal mucosal weight per 100 g bodyweight (intestinal mucosae; [4]): 1.32 g/100 g bodyweight
- Villous height in distal intestine (intestinal mucosae; [5]): 216 ± 8.4 μm
- Villous height in middle intestine (intestinal mucosae; [5]): 354 ± 7.5 μm
- Villous height in proximal intestine (intestinal mucosae; [5]): 546 ± 18.6 μm
- effect on ileal mucosa (in words) (intestinal mucosae; versus control group): tendency to increase
- effect on jejunal mucosal weight (in words) (intestinal mucosae; versus control group): significantly increases
- effect on length of the small intestine (in words) (intestinal mucosae; versus control group): tendency to increase
- effect on whole small intestinal mucosal weight including jejunum and ileum (in words) (intestinal mucosae; versus control group): significantly increases
